In patent USRE49099 (Bayer, dated 2022):

Experiments:
cyno activated protein C [1] = target: T1, cyno activated protein C (cyno (monkey)); assay: SPR (Biacore), 1:1 binding model
T1 construct: also called cyno aPC; cyno APC

[2] = target: T2, human activated protein C (human, UniProt P04070 43-197; P04070 212-461); assay: SPR (Biacore), 1:1 binding model
T2 construct: also called human aPC; human APC

cyno activated protein C [3] = target: T1, cyno activated protein C; assay: ELISA, coated antigen
human Protein C = target: T3, human Protein C (human, UniProt P04070 43-461); assay: ELISA, coated antigen
T3 construct: Zymogen used as negative control in the ELISA; also called human PC; hPC

[4] = target: T2, human activated protein C; assay: ELISA, coated antigen

Binder | Kd (cyno activated protein C [1]) | koff (cyno activated protein C [1]) | kon (cyno activated protein C [1]) | Kd [2] | koff [2] | kon [2] | EC50 (cyno activated protein C [3]) | binding result (human Protein C) | EC50 [4]
1573 Chimeric (antibody, V domains shown, IgG; also called chimera 1573; 1573VH (chimeric) + 1573Vk (chimeric)) VH: EVKLEESGGGLVQPGGSMKLSCVASGFTFSNYYLNWVRQSPEKGLEWVADIRLKSNNYEKHYAESVKGRFTISRDDSKSSVYLQMNNLRAEDTGIYYCIREGDYFDYWGQGTTLTVSS VL: NIVLTQSPASLAVSLGQRATISCRASESVDSFGATFMHWYQQKPGQPPKLLIYLASNLESGVPARFSGSGSRTDFTLTIDPVEADDAATYYCQQNNEDPYTFGGGTKLEIKR | 13.8 nM | 0.00766 s⁻¹ | 555000 M⁻¹ s⁻¹ | 3.49 nM | 0.00811 s⁻¹ | 2.32e+06 M⁻¹ s⁻¹ | 0.83 nM | no binding (tested: 20 nM) | 0.334 nM
1573 mouse (antibody, V domains shown, Parental murine monoclonal antibody; also called mouse aPC monoclonal antibody 1573; HAPC1573) VH: EVKLEESGGGLVQPGGSMKLSCVASGFTFSNYYLNWVRQSPEKGLEWVADIRLKSNNYEKHYAESVKGRFTISRDDSKSSVYLQMNNLRAEDTGIYYCIREGDYFDYWGQGTTLTVSS VL: NIVLTQSPASLAVSLGQRATISCRASESVDSFGATFMHWYQQKPGQPPKLLIYLASNLESGVPARFSGSGSRTDFTLTIDPVEADDAATYYCQQNNEDPYTFGGGTKLEIKR | 21.1 nM | 0.00725 s⁻¹ | 344000 M⁻¹ s⁻¹ | 5.49 nM | 0.0052 s⁻¹ | 948000 M⁻¹ s⁻¹ |  |  | 
Hu1573-12 (antibody, V domains shown, Humanized IgG, human gamma 1 / kappa constant regions by vectors pCP-hCg1 and pCP-hck; also called H1573VH.1E + H1573Vk.2) VH: EVQLVESGGGLVQPGGSLRLSCAASGFTFSNYYLNWVRQAPGKGLEWVADIRLKSNNYEKHYAESVKGRFTISRDDSKNSVYLQMNSLKTEDTAVYYCIREGDYFDYWGQGTTVTVSS VL: DIVMTQTPLSLSVTPGQPASISCRASESVDSFGATFMHWYLQKPGQPPQLLIYLASNLESGVPDRFSGSGSGTDFTLKISRVEAEDVGVYYCQQNNEDPYTFGQGTKLEIKR | 16.1 nM | 0.0054 s⁻¹ | 337000 M⁻¹ s⁻¹ | 6.03 nM | 0.00844 s⁻¹ | 1.4e+06 M⁻¹ s⁻¹ | 0.642 nM | no binding (tested: 20 nM) | 0.339 nM
Hu1573-3 (antibody, V domains shown, Humanized IgG, human gamma 1 / kappa constant regions by vectors pCP-hCg1 and pCP-hck; also called H1573VH.1B + H1573Vk.2) VH: EVQLVESGGGLVQPGGSLRLSCAASGFTFSNYYLNWVRQAPGKGLEWVGDIRLKSNNYEKHYAESVKGRFTISRDDSKNSVYLQMNSLKTEDTAVYYCIREGDYFDYWGQGTTVTVSS VL: DIVMTQTPLSLSVTPGQPASISCRASESVDSFGATFMHWYLQKPGQPPQLLIYLASNLESGVPDRFSGSGSGTDFTLKISRVEAEDVGVYYCQQNNEDPYTFGQGTKLEIKR | 14.2 nM | 0.0105 s⁻¹ | 743000 M⁻¹ s⁻¹ | 5.7 nM | 0.00818 s⁻¹ | 1.44e+06 M⁻¹ s⁻¹ | 0.872 nM | no binding (tested: 20 nM) | 0.592 nM
Hu1573-4 (antibody, V domains shown, Humanized IgG, human gamma 1 / kappa constant regions by vectors pCP-hCg1 and pCP-hck; also called H1573VH.1B + H1573Vk.2A) VH: EVQLVESGGGLVQPGGSLRLSCAASGFTFSNYYLNWVRQAPGKGLEWVGDIRLKSNNYEKHYAESVKGRFTISRDDSKNSVYLQMNSLKTEDTAVYYCIREGDYFDYWGQGTTVTVSS VL: DIVLTQTPLSLSVTPGQPASISCRASESVDSFGATFMHWYLQKPGQPPQLLIYLASNLESGVPDRFSGSGSGTDFTLKISRVEAEDVGVYYCQQNNEDPYTFGQGTKLEIKR | 14.2 nM | 0.0105 s⁻¹ | 743000 M⁻¹ s⁻¹ | 5.1 nM | 0.00772 s⁻¹ | 1.52e+06 M⁻¹ s⁻¹ | 0.904 nM | no binding (tested: 20 nM) | 0.583 nM
Hu1573-6 (antibody, V domains shown, Humanized IgG, human gamma 1 / kappa constant regions by vectors pCP-hCg1 and pCP-hck; also called H1573VH.1C + H1573Vk.2) VH: EVQLVESGGGLVQPGGSLRLSCAASGFTFSNYYLNWVRQAPGKGLEWVADIRLKSNNYEKHYAESVKGRFTISRDDSKNSLYLQMNSLKTEDTAVYYCIREGDYFDYWGQGTTVTVSS VL: DIVMTQTPLSLSVTPGQPASISCRASESVDSFGATFMHWYLQKPGQPPQLLIYLASNLESGVPDRFSGSGSGTDFTLKISRVEAEDVGVYYCQQNNEDPYTFGQGTKLEIKR | 11.3 nM | 0.00707 s⁻¹ | 627000 M⁻¹ s⁻¹ | 5.94 nM | 0.00848 s⁻¹ | 1.43e+06 M⁻¹ s⁻¹ | 0.9 nM | no binding (tested: 20 nM) | 0.274 nM
Hu1573-7 (antibody, V domains shown, Humanized IgG, human gamma 1 / kappa constant regions by vectors pCP-hCg1 and pCP-hck; also called H1573VH.1C + H1573Vk.2A) VH: EVQLVESGGGLVQPGGSLRLSCAASGFTFSNYYLNWVRQAPGKGLEWVADIRLKSNNYEKHYAESVKGRFTISRDDSKNSLYLQMNSLKTEDTAVYYCIREGDYFDYWGQGTTVTVSS VL: DIVLTQTPLSLSVTPGQPASISCRASESVDSFGATFMHWYLQKPGQPPQLLIYLASNLESGVPDRFSGSGSGTDFTLKISRVEAEDVGVYYCQQNNEDPYTFGQGTKLEIKR | 18.5 nM | 0.00471 s⁻¹ | 255000 M⁻¹ s⁻¹ | 6.33 nM | 0.00857 s⁻¹ | 1.36e+06 M⁻¹ s⁻¹ | 0.853 nM | no binding (tested: 20 nM) | 0.445 nM
Hu1573-9 (antibody, V domains shown, Humanized IgG, human gamma 1 / kappa constant regions by vectors pCP-hCg1 and pCP-hck; also called H1573VH.1D + H1573Vk.2) VH: EVQLVESGGGLVQPGGSLRLSCAASGFTFSNYYLNWVRQAPGKGLEWVGDIRLKSNNYEKHYAESVKGRFTISRDDSKSSLYLQMNSLKTEDTAVYYCIREGDYFDYWGQGTTVTVSS VL: DIVMTQTPLSLSVTPGQPASISCRASESVDSFGATFMHWYLQKPGQPPQLLIYLASNLESGVPDRFSGSGSGTDFTLKISRVEAEDVGVYYCQQNNEDPYTFGQGTKLEIKR | 15.2 nM | 0.00724 s⁻¹ | 475000 M⁻¹ s⁻¹ | 5.63 nM | 0.00815 s⁻¹ | 1.45e+06 M⁻¹ s⁻¹ | 0.986 nM | no binding (tested: 20 nM) | 0.313 nM
Hu1573-11 (antibody, V domains shown, Humanized IgG, human gamma 1 / kappa constant regions by vectors pCP-hCg1 and pCP-hck; also called H1573VH.1D + H1573Vk.2B) VH: EVQLVESGGGLVQPGGSLRLSCAASGFTFSNYYLNWVRQAPGKGLEWVGDIRLKSNNYEKHYAESVKGRFTISRDDSKSSLYLQMNSLKTEDTAVYYCIREGDYFDYWGQGTTVTVSS VL: DIVMTQTPLSLSVTPGQPASISCRASESVDSFGATFMHWYLQKPGQPPQLLIYLASNLESGVPDRFSGSGSRTDFTLKISRVEAEDVGVYYCQQNNEDPYTFGQGTKLEIKR | 15.6 nM | 0.0042 s⁻¹ | 269000 M⁻¹ s⁻¹ | 6.49 nM | 0.00896 s⁻¹ | 1.38e+06 M⁻¹ s⁻¹ | 1.47 nM | no binding (tested: 20 nM) | 0.687 nM
Hu1573-13 (antibody, V domains shown, Humanized IgG, human gamma 1 / kappa constant regions by vectors pCP-hCg1 and pCP-hck; also called H1573VH.1E + H1573Vk.2A) VH: EVQLVESGGGLVQPGGSLRLSCAASGFTFSNYYLNWVRQAPGKGLEWVADIRLKSNNYEKHYAESVKGRFTISRDDSKNSVYLQMNSLKTEDTAVYYCIREGDYFDYWGQGTTVTVSS VL: DIVLTQTPLSLSVTPGQPASISCRASESVDSFGATFMHWYLQKPGQPPQLLIYLASNLESGVPDRFSGSGSGTDFTLKISRVEAEDVGVYYCQQNNEDPYTFGQGTKLEIKR | 15 nM | 0.00343 s⁻¹ | 229000 M⁻¹ s⁻¹ | 4.69 nM | 0.00655 s⁻¹ | 1.4e+06 M⁻¹ s⁻¹ | 0.804 nM | no binding (tested: 20 nM) | 0.236 nM
Hu1573-14 (antibody, V domains shown, Humanized IgG, human gamma 1 / kappa constant regions by vectors pCP-hCg1 and pCP-hck; also called H1573VH.1E + H1573Vk.2B) VH: EVQLVESGGGLVQPGGSLRLSCAASGFTFSNYYLNWVRQAPGKGLEWVADIRLKSNNYEKHYAESVKGRFTISRDDSKNSVYLQMNSLKTEDTAVYYCIREGDYFDYWGQGTTVTVSS VL: DIVMTQTPLSLSVTPGQPASISCRASESVDSFGATFMHWYLQKPGQPPQLLIYLASNLESGVPDRFSGSGSRTDFTLKISRVEAEDVGVYYCQQNNEDPYTFGQGTKLEIKR | 17.6 nM | 0.00524 s⁻¹ | 299000 M⁻¹ s⁻¹ | 6.13 nM | 0.00856 s⁻¹ | 1.4e+06 M⁻¹ s⁻¹ | 0.984 nM | no binding (tested: 20 nM) | 0.225 nM
Hu1573-15 (antibody, V domains shown, Humanized IgG, human gamma 1 / kappa constant regions by vectors pCP-hCg1 and pCP-hck; also called H1573VH.1F + H1573Vk.2) VH: EVQLVESGGGLVQPGGSLRLSCAASGFTFSNYYLNWVRQAPGKGLEWVADIRLKSNNYEKHYAESVKGRFTISRDDSKSSVYLQMNSLKTEDTAVYYCIREGDYFDYWGQGTTVTVSS VL: DIVMTQTPLSLSVTPGQPASISCRASESVDSFGATFMHWYLQKPGQPPQLLIYLASNLESGVPDRFSGSGSGTDFTLKISRVEAEDVGVYYCQQNNEDPYTFGQGTKLEIKR | 20.2 nM | 0.00452 s⁻¹ | 225000 M⁻¹ s⁻¹ | 6.15 nM | 0.00845 s⁻¹ | 1.37e+06 M⁻¹ s⁻¹ | 0.889 nM | no binding (tested: 20 nM) | 0.288 nM
Hu1573-16 (antibody, V domains shown, Humanized IgG, human gamma 1 / kappa constant regions by vectors pCP-hCg1 and pCP-hck; also called H1573VH.1F + H1573Vk.2A) VH: EVQLVESGGGLVQPGGSLRLSCAASGFTFSNYYLNWVRQAPGKGLEWVADIRLKSNNYEKHYAESVKGRFTISRDDSKSSVYLQMNSLKTEDTAVYYCIREGDYFDYWGQGTTVTVSS VL: DIVLTQTPLSLSVTPGQPASISCRASESVDSFGATFMHWYLQKPGQPPQLLIYLASNLESGVPDRFSGSGSGTDFTLKISRVEAEDVGVYYCQQNNEDPYTFGQGTKLEIKR | 15.8 nM | 0.00373 s⁻¹ | 236000 M⁻¹ s⁻¹ | 4.52 nM | 0.00643 s⁻¹ | 1.42e+06 M⁻¹ s⁻¹ | 1.23 nM | no binding (tested: 20 nM) | 0.233 nM
Hu1573-17 (antibody, V domains shown, Humanized IgG, human gamma 1 / kappa constant regions by vectors pCP-hCg1 and pCP-hck; also called H1573VH.1F + H1573Vk.2B) VH: EVQLVESGGGLVQPGGSLRLSCAASGFTFSNYYLNWVRQAPGKGLEWVADIRLKSNNYEKHYAESVKGRFTISRDDSKSSVYLQMNSLKTEDTAVYYCIREGDYFDYWGQGTTVTVSS VL: DIVMTQTPLSLSVTPGQPASISCRASESVDSFGATFMHWYLQKPGQPPQLLIYLASNLESGVPDRFSGSGSRTDFTLKISRVEAEDVGVYYCQQNNEDPYTFGQGTKLEIKR | 15.6 nM | 0.0042 s⁻¹ | 269000 M⁻¹ s⁻¹ | 5.75 nM | 0.00833 s⁻¹ | 1.45e+06 M⁻¹ s⁻¹ | 1.21 nM | no binding (tested: 20 nM) | 0.627 nM
